Measured values published in patent US10822385B2, “EGF(A) analogues with fatty acid substituents” (Novo Nordisk A/S, priority 2016, dated 2020).

Biological target: T1, hPCSK9 (Homo sapiens, UniProt Q8NBP7)
T1 construct: purchased Sino Biologicals, China; host or cells: injected into BalBC or NMRI mice
Experiment: hPCSK9 challenge model, hepatic LDL-R expression in mice (Western Blot)
Assay type: in vivo, mouse
Details: inhibitor 22 nmol/kg, hPCSK9 0.4 mg/kg i.v., healthy control = 100%, hPCSK9 alone = 0%
Method: The aim of this study was to show the change in the LDL receptor expression level in mouse liver in response to inhibiting the action of intravenously injected hPCSK9 with an anti-PCSK9 peptide.
Healthy male BalBC or NMRI mice (Charles River, Germany) are injected with an anti-PCSK9 peptide, either s.c. or i.v. 15-120 minutes before injecting hPCSK9 (Sino Biologicals, China) intravenously in the tail vein at a dose of 0.4 mg/kg. Sixty minutes after the injection of hPCSK9, the animals are anaesthetised in isoflurane and euthanised by cervical dislocation. The liver is then quickly excised and snapfrozen in liquid nitrogen. The livers are kept at −80 degrees celsius until analysis.
Equal protein transfer was confirmed by Ponceau S (Sigma, P7170) staining of the membranes and the membranes were further blocked in blocking buffer (TBS-T, 2% Tween). […] Quantitative analysis of chemiluminescent signals from Western blots was done with MultiGauge software (Fujifilm).
“Vehicle-vehicle” is the group of healthy controls (baseline level), “vehicle-hPCSK9” is the group injected with hPCSK9 alone.
In Table 8, data are presented as percentage change in relation to the window between baseline level in healthy control animals (set to 100%) and the level after down regulation by hPCSK9 alone (set to 0%).

T1 sequence (Q8NBP7 153-692): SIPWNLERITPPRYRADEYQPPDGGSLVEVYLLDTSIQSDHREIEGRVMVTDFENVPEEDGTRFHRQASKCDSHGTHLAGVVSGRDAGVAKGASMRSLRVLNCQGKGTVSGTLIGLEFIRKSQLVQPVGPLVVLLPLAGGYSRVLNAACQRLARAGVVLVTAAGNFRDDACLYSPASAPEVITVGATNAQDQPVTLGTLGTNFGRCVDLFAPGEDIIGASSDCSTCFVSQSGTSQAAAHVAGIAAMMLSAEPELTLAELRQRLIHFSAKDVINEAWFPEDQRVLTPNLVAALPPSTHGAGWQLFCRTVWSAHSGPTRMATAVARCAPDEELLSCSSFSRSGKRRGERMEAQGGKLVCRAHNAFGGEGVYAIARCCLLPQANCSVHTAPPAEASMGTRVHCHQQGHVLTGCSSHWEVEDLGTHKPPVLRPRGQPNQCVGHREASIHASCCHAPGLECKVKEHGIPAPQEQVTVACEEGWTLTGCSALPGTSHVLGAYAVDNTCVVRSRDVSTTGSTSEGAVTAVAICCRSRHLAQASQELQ

Percentage of baseline (hepatic LDL-R expression): 157%
Substance: Alirocumab: anti-PCSK9 antibody, control molecule in the hPCSK9 challenge model
